Patent US12281340B2, “Method of producing N-acyl-amino group-containing compound” (AJINOMOTO CO., INC., priority 2018, dated 2025)

What was measured:
Type in all cases: biochemical
[1] = Analysis of ATP dependency of acylamino acid synthetase; details: for signal of molecular weight corresponding to N-caprinoyl amino acid: in the absence of ATP; for N-caprinoylamino acid detected: in the presence of ATP (10 mM), UV 210 nm
Description: 0.25 mL of a reaction solution containing 50 mM Tris-HCl, 5 mM amino acid, 5 mM sodium caprate, 10 mM or 0 mM ATP, 10 mM MgCl2, 1 mM DTT, 50 μg of the purified enzyme, pH 8.0 was incubated at 25° C. for 24 hours. As the amino acid, L-Asp and Gly were used in AtGH3-6 and CfHP, respectively. After completion of the reaction, 0.8 mL of the reaction stop solution (1% (v/v) phosphoric acid, 75% (v/v) methanol) was added to 0.2 mL of the reaction solution, and the mixture was filtrated through the filter followed by being subjected to the UPLC-MS analysis to quantify a produced N-caprinoylamino acid by detection at UV 210 nm. The condition for the UPLC-MS analysis is as described in Example 2. As a result of the analysis, 3.8 mM and […] of the N-caprinoylamino acids were detected in AtGH3-6 and CfHP, respectively in the presence of ATP. However, in the absence of ATP, no signal of the molecular weight corresponding to the N-caprinoylamino acid was detected when any of AtGH3-6 and CfHP was used.

[2] = Synthesis of N-acylamino acids from various fatty acids using purified acylamino acid synthetase, UPLC-MS detection; set-up: key: +: Detected; −: Not detected
Procedure, shortened: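 Purified enzyme (200 μg/mL) with 5 mM amino acid, 5 mM sodium fatty acid (3 mM palmitate or stearate, plus 10% methanol), 10 mM ATP, 10 mM MgCl2, 1 mM DTT in 50 mM Tris-HCl pH 8.0, shaken 24 h at 25 °C. Amino acid varied by enzyme; product mass detected by UPLC-MS (ESI-negative).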

[3] = Synthesis of N-caprinoylamino acid using purified acylamino acid synthetase, UPLC-MS detection; set-up: key: +: Detected; −: Not detected; details: +ATP
Procedure, shortened: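 Purified enzyme (50 μg) with 5 mM amino acid, 5 mM sodium caprate, 10 mM ATP, 10 mM MgCl2, 1 mM DTT in Tris-HCl pH 8.0, 24 h at 25° C; product detected by UPLC-MS (ESI-negative) as the N-caprinoyl amino acid mass signal.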

[4] = substrates GABA and sodium caprate
[5] = substrates Gly and sodium caprate
[6] = substrates L-Ala and sodium caprate
[7] = substrates L-Arg and sodium caprate
[8] = substrates L-Asn and sodium caprate
[9] = substrates L-Asp and sodium caprate
[10] = substrates L-Cys and sodium caprate
[11] = substrates L-Gln and sodium caprate
[12] = substrates L-Glu and sodium caprate
[13] = substrates L-His and sodium caprate
[14] = substrates L-Ile and sodium caprate
[15] = substrates L-Leu and sodium caprate
[16] = substrates L-Lys and sodium caprate
[17] = substrates L-Met and sodium caprate
[18] = substrates L-Phe and sodium caprate
[19] = substrates L-Pro and sodium caprate
[20] = substrates L-Ser and sodium caprate
[21] = substrates L-Thr and sodium caprate
[22] = substrates L-Trp and sodium caprate
[23] = substrates L-Tyr and sodium caprate
[24] = substrates L-Val and sodium caprate
[25] = substrates β-Ala and sodium caprate

| Molecule | signal of molecular weight corresponding to N-caprinoyl amino acid [3, 4] | signal of molecular weight corresponding to N-caprinoyl amino acid [3, 5] | signal of molecular weight corresponding to N-caprinoyl amino acid [3, 6] | signal of molecular weight corresponding to N-caprinoyl amino acid [3, 7] | signal of molecular weight corresponding to N-caprinoyl amino acid [3, 8] | signal of molecular weight corresponding to N-caprinoyl amino acid [3, 9] | signal of molecular weight corresponding to N-caprinoyl amino acid [3, 10] | signal of molecular weight corresponding to N-caprinoyl amino acid [3, 11] | signal of molecular weight corresponding to N-caprinoyl amino acid [3, 12] | signal of molecular weight corresponding to N-caprinoyl amino acid [3, 13] | signal of molecular weight corresponding to N-caprinoyl amino acid [3, 14] | signal of molecular weight corresponding to N-caprinoyl amino acid [3, 15] | signal of molecular weight corresponding to N-caprinoyl amino acid [3, 16] | signal of molecular weight corresponding to N-caprinoyl amino acid [3, 17] | signal of molecular weight corresponding to N-caprinoyl amino acid [3, 18] | signal of molecular weight corresponding to N-caprinoyl amino acid [3, 19] | signal of molecular weight corresponding to N-caprinoyl amino acid [3, 20] | signal of molecular weight corresponding to N-caprinoyl amino acid [3, 21] | signal of molecular weight corresponding to N-caprinoyl amino acid [3, 22] | signal of molecular weight corresponding to N-caprinoyl amino acid [3, 23] | also measured |
| --- | --- | --- | --- | --- | --- | --- | --- | --- | --- | --- | --- | --- | --- | --- | --- | --- | --- | --- | --- | --- | --- |
| AtGH3-6: indole-3-acetic acid-amido synthetase GH3.6 from Arabidopsis thaliana, expressed in E. coli with N-terminal His-tag (protein, listed as Arabidopsis thaliana, N-terminal His-tag, indole-3-acetic acid-amido synthetase GH3.6 from Arabidopsis thaliana, expressed in E. coli with N-terminal His-tag) MPEAPKIAALEVSDESLAEKNKNKLQFIEDVTTNADDVQRRVLEEILSRNADVEYLKRHGLEGRTDRETFKHIMPVVTYEDIQPEINRIANGDKSQVLCSNPISEFLTSSGTSGGERKLMPTIEEELDRRSLLYSLLMPVMDQFVPGLDKGKGMYFLFIKSESKTPGGLPARPVLTSYYKSSHFKNRPYDPYTNYTSPNQTILCSDSYQSMYSQMLCGLCQHKEVLRVGAVFASGFIRAIKFLEKHWPELARDIRTGTLSSEITDSSVREAVGEILKPDPKLADFVESECRKTSWQGIITRLWPNTKYVDVIVTGTMSQYIPTLDYYSNGLPLVCTMYASSECYFGVNLRPLCKPSEVSYTLIPNMAYFEFLPVHRNSGVTSSISLPKALTEKEQQELVDLVDVKLGQEYELVVTTYAGLYRYRVGDVLSVAGFKNNAPQFSFICRKNVVLSIDSDKTDEVELQNAVKNAVTHLVPFDASLSEYTSYADTSSIPGHYVLFWELCLNGNTPIPPSVFEDCCLTIEESLNSVYRQGRVSDKSIGPLEIKMVESGTFDKLMDYAISLGASINQYKTPRCVKFAPIIELLNSRVVDSYFSPKCPKWSPGHKQWGSN | + | + | + | + | + | + | + | + | + | + | + | + | + | + | + | + | + | + | + | + | signal of molecular weight corresponding to N-caprinoyl amino acid ([1]; L-Asp and sodium caprate): no signal; N-caprinoylamino acid detected ([1]; L-Asp and sodium caprate): 3.8 mM; signal of molecular weight corresponding to N-acylamino acid ([2]; substrates L-Asp and Capric acid): +; signal of molecular weight corresponding to N-acylamino acid ([2]; substrates L-Asp and Caproic acid): +; signal of molecular weight corresponding to N-acylamino acid ([2]; substrates L-Asp and Caprylic acid): +; signal of molecular weight corresponding to N-acylamino acid ([2]; substrates L-Asp and Lauric acid): +; signal of molecular weight corresponding to N-acylamino acid ([2]; substrates L-Asp and Linoleic acid): −; signal of molecular weight corresponding to N-acylamino acid ([2]; substrates L-Asp and Palmitic acid): +; signal of molecular weight corresponding to N-acylamino acid ([2]; substrates L-Asp and myristic acid): +; signal of molecular weight corresponding to N-caprinoyl amino acid [3, 24]: +; signal of molecular weight corresponding to N-caprinoyl amino acid [3, 25]: + |
| CfHP: hypothetical protein from Cystobacter fuscus (GH3 protein), His-tagged (protein, listed as Cystobacter fuscus, His-tag, hypothetical protein from Cystobacter fuscus (GH3 protein), His-tagged) MQAAGRRDKQRFIEQTRHVARVNVDTLRAILQHNRDTDFGRRHGFASLRTVEDFQRALPVSTYEPFRPYMERIARGEQNVLTADRVEYLGITSGTTGQRKLLPVSRPHLENMRRTMMIGRAVVTEKVPAARRPSRGMILMNAVLRERSEGGLLTGALTAISTHSMGRAASFAFTSPPEAFRLRKHADALYLHLLFGLRERELGTLMAPFASGLLDMVHLLERRGADLVDDIARGVLRPELDLEPEQRRLLQSRLLPDPERAREVSQALEQGPHGLLRRLWPRLAYVSSITGASFSLYTRQLTPYLEGVPLSAASYVSTEGILGVPLELEQAVYCLMVGMAFFEFIPERELDAESPTTLLPEQLVEGEAYEVVLTTQAGLYRYRLGDVVRIVGRYHEAPLMEFLYRRGALLNLMGEKTSEHAARLALEQALATEGLLPADYSVVEETETLPGRYALFVELQEGARPQGAPEQLSRALEEALCRTNPFYEVIRRSERLGAAQLHRVEPGTFQALRDVLVQRGASPTQVKVPRVVRDAELQGLLRQRRVTG | + | + | + | + | + | + | + | + | + | + | + | + | + | + | + | + | + | + | + | + | signal of molecular weight corresponding to N-caprinoyl amino acid ([1]; Gly and sodium caprate): no signal; N-caprinoylamino acid detected ([1]; Gly and sodium caprate): 5.2 mM; signal of molecular weight corresponding to N-acylamino acid ([2]; substrates Gly and Capric acid): +; signal of molecular weight corresponding to N-acylamino acid ([2]; substrates Gly and Caproic acid): +; signal of molecular weight corresponding to N-acylamino acid ([2]; substrates Gly and Caprylic acid): +; signal of molecular weight corresponding to N-acylamino acid ([2]; substrates Gly and Lauric acid): +; signal of molecular weight corresponding to N-acylamino acid ([2]; substrates Gly and Linoleic acid): −; signal of molecular weight corresponding to N-acylamino acid ([2]; substrates Gly and Palmitic acid): +; signal of molecular weight corresponding to N-acylamino acid ([2]; substrates Gly and myristic acid): +; signal of molecular weight corresponding to N-caprinoyl amino acid [3, 24]: +; signal of molecular weight corresponding to N-caprinoyl amino acid [3, 25]: + |
